From the RNAGym collection of RNA variant scans (doi:10.1073/pnas.2313332121)
This sample holds only a part of the variants without activity.

B1: TPR 5TU (parent)
chain: GGAUCUUCUCGAUCUAACAAAAAAGACAAAUCUGCCACAAAGCUUGAGAGCAUCUUCGGAUGCAGAGGCGGCAGCCUUCGGUGGCGCGAUAGCGCCAACGUUCUCAACUAUGACACGCAAAACGCGUGCUCCGUUGAAUGGAGUUUAUCAUG

Variants of: B1
Assay: polymerase ribozyme fitness, log enrichment relative to wild type (log ratio); higher = more active; in vitro selection for triplet polymerase activity
In short: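 Fitness is a logarithmic measure of how a genotype enriched relative to the wild type, with replicate averages weighted by inverse variance. The logarithm uses base 2, and enrichment came from Illumina sequencing of input and output libraries. Those libraries were PCR-built, transcribed mutants of each subunit of a heterodimeric triplet polymerase ribozyme, passed through one triplicate in vitro selection round that included frozen incubation at −7 °C, gel excision of extended constructs and streptavidin-bead capture. Genotypes were kept only if they had ≥10 input reads and ≥1 read per output.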

Variant | polymerase ribozyme fitness (log ratio)
GGAUCUUCUUGAUCUAACAAAAAAGACAAAUCUGCCACAAAGCUUGAGAGCCUCUUCGGAUGCAGAGGCGGCAGCCUUCGGUGGCGUAAUAGCGCCAACGUUCUCAACUAUGACACGCAAAUGGCGUGCUCCGUUGAAUGGAGUUUAUCAUG [C10U A52C C87U G88A A122U C123G] | ≤ -4.2
GGAUCUUCUCGUUCUAACAAAAAAGACAAAUCUGCCACAAAGCUUGAGAGCAUCUUCGGAUGCAGAGGCGGCAGCCUUCGGUGCCGCGAUAGCGCCAACGUUCUCAACUAUGACACGCAAAACGCGUGCUCCGUUGAAUGGAGUUUAUCAUG [A12U G84C] | -2.67
GGAUCUUCUCGAUCUAACAAAAAAGACAAAUCUGCCACAAAGCUUGAGAGCAUCUUCGGAUGCAGAGGCGGCAGCCUUCGGUGGCGCGAUAGCGCCAACGUCCUCAACUAUGACACGCAUAACGCGUGCUCCGUUGAAUCGAGUUUAUCAUG [U102C A120U G140C] | -3.56
GGAUCUUCUCGAUCUAACAAAAAAGACAAAUCUGCCACAAAGCUUGAGAGCAUCUGCGGAUGCAGAGGCGGCAGCCUGUGGUGGCAGGAUAGCGACAACGUUCUCAACUAUGACUCGCAAAACGCGUGCUCCGUUGAAUGGAGUUUAUCAUC [U56G U78G C79U G86A C87G C95A A115U G152C] | ≤ -4.2
GGAUCUUCUCGAUCUAACAAAAAAGACAAAUCUGCCACAAAGCUUGAGCGCAUCAUCGGAUGCAGAGGCGGCAGCCUUCGGUGGCGCGAUAGCGCCAACGUUCUCAACUAUGACACGCAAAACGCGUGCUCCGUUGAAUGGACUUUAUCAUG [A49C U55A G143C] | ≤ -4.2
GGAUCUUCUCGAUCUAACAAAAAAGACAAAUCUGCCACAAAGCUUGAGAGCAUCUUCCGAUGCAGAGGCGGCAGCCUGCGGUGGGGCGAUAGCGCCAACGUUCUCUACUAUGGCACGCAAAACGCGUGCUCCGUUGAAUGGAGCUUAUCAUG [G58C U78G C85G A106U A113G U144C] | ≤ -4.2
GGAUCUUCUCGAUCUAACAAAAAAGACUAAUCUGCCACAAAGCUUGAGAGCAUCUUCGGAGGCAGAGGCGGCAGCCUUCGGUGGCGGGAUAGCGCCAACGUUCUCAACUAUGACACGCAAAACGCGUGCUCCGUUGAAUGGAGUUUAUCAUG [A28U U61G C87G] | -4.14
GGAUCUUCUCGAUCUAACAAAAAAGACAAAUCUGCCACAAAGCUUGAGAGCAUCUUCGGAUGCAGAGGCGGCAGCAGUCGGUGGCGCGAUAGCGUCAACUUUCUCAACUAUGACACGCAAAACGCGUGCUCCGUUGAAUGGAGUUUAUCAUG [C76A U77G C95U G100U] | -4.15
GGAUCUUCUCGAUCUAACAAGAAAGACAAAUCUGCCACAAAGCUUGAGAGCAACUUCGGUUGCAGAGGCGGCAGCCUUCGGUGGCGCGAUAGCGCUAAGGUUCUCAACUGUGACACGCAAAACGCGUGCUCCGUUGAAUGGAGUUUAUCAUG [A21G U53A A60U C96U C99G A110G] | ≤ -4.2
GGAUCUUCUCGAUCUAACAAAAAAGACAAAUCUGCCACAAAGCUUGAGAGCAUCUUCGGAUGCAGAGGCGGCAGCCUUCGGUGGCGCGAUAGCGCCAACGUUCUCAACUAUGACACGCAAAACGCGUGCUCCGUUGAAUCGAGUUUAUCAUG [G140C] | -3.16
GGAUCUUCUCGAUCUAACAAAAAAGAAAAAUCUGCCACAAAGCUUGAGAGCAUCUUCGAAUGCAGAGGCGGCAGCCUUCGGUGGUGCGAUAGCGCCAACGUUCUCAACUAUGACACGCAAAACGCGUGCUCCGAUGAAUGGAGUUUAUCAUG [C27A G59A C85U U134A] | ≤ -4.2
GGAUCUUCUCGAUCUAACAAAAAAGACAAAUCUGCCACAAAGCUUGAGAGCAUCAUCGGAUGCAGAGGCGGCAGCCUUCGGUGGCGCGAUAGCGCCAACGUUCUCAACUAUGACACGCAAUACGCGUGCUCCGUUGAAUGGAGUUUAUCAUG [U55A A121U] | -0.372
GGAUCUUCUCGAUCUAACAAAAAAGACAAAUCUGCCACAAAGCUUGAGAGCAUCUUCGGAUGCAGAGGCGGCAGCCUUCGGUGGCGCGAUAGCGCCAACGUUCUCAUCUAUGACACGCAGAACGCGUGCUCAGUUGAAUGGAGUUUCUCAUG [A107U A120G C132A A147C] | ≤ -4.2
GGAUCUUCUCGAUCUAACAAAAAAGACAAAUCUGCCACAAAGCUUGAGAGCAUAUUCGGAUGCAGAGGCGGCAGCCUUCGGUGGCGCGAUAGCGCGAACGUUCUUAACUAUGACACGCAAAACGCGUGCUCCGUUGAAUGGAGCUUAUCAUG [C54A C96G C105U U144C] | -2.85
GGAUCUUCUCGAUCUAACAAAAAAGACAAAUCUGCCACAGAGCUUGAGAGCAGCUUCGGAUGCAGAGGCGGCGGCCUUCGUUGGCGCGAUAGCACCAACGUUCUCAACUAUGACACGCAAAACGCGUGCUCCGUUGAAUGGAGUUUAUCAUG [A40G U53G A73G G81U G94A] | ≤ -4.2
GGAUCUUCUCGAUCUAACAAAAAAGACAAAUCUGCCACAAAGCUUGAGAGCAUCUUCGGUUGCAGAGGCGGCAGCCUUCGGUGGCGCGAUAUCGCCAACGUUCUCAACUAUGACACGCAAAACGCGUGCUCCGUUGAAUGCAGUUUAUCAUG [A60U G92U G141C] | -2.82
GGAUCUUCUCGAUCUAACAAAAAAGACAAAUCUGCCACAAAGCUUGAGAGCAUCUUCGGGUGCAGAGGCGGCAGCCUUCGGUGGCGCGAUAGCGCCAACGUUCUCAACUAUGACACGCAAAACGCGUGCUCCGUUGAAUGGAGUUUAUCGUG [A60G A150G] | -0.0266
GGAUCUUCUCGAUCUAACAAAAAAGACAAAUCUGCCACAAAGCUUGAGAGCAUCUUCGUAUGCAGAGGCGGCAGCCUUCGGUGGCGCGAUAGCGCUAACGUUCUCAACUAUGACACGCAAAACGCGUGCUCCGUUGAAUGGAGUUUAUCAUG [G59U C96U] | -0.292
GGAUCUUCUCGGUCUAACAAAAAAGACAAAUCUGCCACAAAGCUUGAGAGCAUCUUCGGAUGCAGAGGCGGCAGCCUUUGGUGGCCCGAUAGCGCCAACGUUCUCAACUAUGACACGCAGAACGUGUGCUCCGUUGAAUGGAGUUUAUCAUG [A12G C79U G86C A120G C125U] | ≤ -4.2

Variant | polymerase ribozyme fitness (log ratio)
GGAUCUUCUCGAUCUAACAAAAAAGACAAAUCUGCCACAAAGAUUGAGAGCAUCUUCCGAUGCAGAGGCGGCAGCAUUCGGUGGCGCGAUAGCGCCAACGUCCUCAACUAUGACACGCAAAACGCGUGCUCCGUUGAAUGAAGUUUAUCAUG [C43A G58C C76A U102C G141A] | ≤ -4.2
GGAUCUUCUCGAUCUAACAAAAAAGACAAAUCUGCCACAAAGCUUGAGAGCAUCUUCGGAUGCAGAGGCGGCAGCCUUCGGUGUCGCGAUAGCGCCAACGUUCUCAACUAUGACACGCAAAACGCGUGUUCCGUUGAAUGGAGUUUAUCAUG [G84U C129U] | -1.42
GGAUCUUCUCGAUCUAACAAAAAAGACAAAUCUGCCACAAAGCUUGAGAGCAUCUUCGUAUGCAGAGGCGGCAGCCUUCGGUGGCGCGAUAGCGCCAACGUUCUCAACUAUGACACGCAAAACCCGUGCUCCGGUGAAUGGAGUUAAUCAUG [G59U G124C U134G U146A] | -3.17
GGAUCUUCUCGAUCUAACAAAAAAGACAAAUCUGCCACAAAGCUUGAGAGCAUCUUCGGAUGCAGAGGCGGCAGCCUUCGGUGGCGCGAUGGCGCCAACGUUCUCAACUAUGACACGCAAAACGCGUGCUCCGUUGAAUGGAGUGUAUCAUG [A91G U145G] | -3.96
GGAUCUUCUCCAUCUAACAAAAAAGACAAAUCUGCCACAGAGCUUGAGAGCAUCUUCGGAUGCAGAGGCGGCAGCCUUCGGUGACGCGAUAGCGCCCACGUUCUCAACUAUGACACGCAAAACGCAUGCUCCGUUGAAUGGAGUUUAUCAUG [G11C A40G G84A A97C G126A] | ≤ -4.2
GGAUCUUCUCGAUCUAACAAAAAAGGCAAAUCUGUCACAAAGCUUGAGAGCAUCUUCGGAUGCAGAGGCGGCAGCCUUCGGUGGCGCGAUAGCGCCAACGUUCUCAACUAUGACACGCAAAACGCGUGCUCCGUUGAAUGGAGUUUAUCAUG [A26G C35U] | -3.06
GGAUCUUCUCGAUCUAACAAAAAAGACAAAUCUGACACAAAGCUUGAGAGCAUCUUCGGAUGCAGAGGCGGCAGCUUUCGAUGGCGCGAUAGCGCUAACGUUAUCAACUAUGACACGCAAAACGCGUGCUCCGUUGAAUGGAGUUUAUCAUG [C35A C76U G81A C96U C103A] | ≤ -4.2
GGAUCUUCUCGAUCUAACAAAAAAGACAAAUCUGCCACAAAGCUUGAGAGCACCUUCGGAUGCAGAGGCGGCAGCCUUCGGUCGCGCGAUAGCGCCAACGUUCUCAACUAUGACAGGCAAAACGCGUGCUCCGUUGAAUGGAGUUUAUCAUG [U53C G83C C116G] | -3.05
GGAUCUUCUCGAUCUAACAAAAAAGACAAAUCUGCCACAAAGCUUGAGAGCAUCUUAGGAUGCAGAGGCGGCAGCCUUCGGUGUCGCGUUAUCGCCAACGUUCUCAACUAUGACACGUAAAACGCGUGCUCCGUUGAAUGGAGUUUAUCAAG [C57A G84U A89U G92U C118U U151A] | ≤ -4.2
GGAUCUUCUCGAUCUAACAAAAAAGACAAAUCUGCCACAAAGCUUGAGAGCAUCUUCGGAUGCAGAGGCGGCAGCCUUUGGUGGCGCGAUAGCGCCGACGUUCUCAACUAUGACACGCAAAACGCGUGCUCCGUUGAAUGGAGUUUAUCAUG [C79U A97G] | -3.02
GGAUCUUCUCGAUCUAACAAAAAAGACAAAUCUGCCACAAAGCUUGAGAGCGUCUUCGGGUGCAGAGGCGGCAGUCUUCGGUGGCGCUAUAACGUCAACGUUCUCAACUAUGACAUGCAAAACGCGUGCUCCGUUGAAUGGAGUUUAUCAUG [A52G A60G C75U G88U G92A C95U C116U] | ≤ -4.2
GGAUCUUCUCGAUCUAACAAAAAAGACUAAUCUGCCACAAAGCUUGAGAGCAUCUUCGGAUGCAGAGGCGGCAGCCUUCGGUGGCGCGAUAGCGCAAACGUUCUCAACUAUGACACGCAAAACGCGUGCUCCGUUGAAUGGAGUUUAUCAUG [A28U C96A] | -3.93
GGAUCUUCUCGAUCUAACAAAAAAGACAAAUCUGCCAUAAAGCUUGAGAGCAUCUUCGGAUGCAGAGGCGGCAGCCUUCGGUUGCGCGAUAGCGCCAACGUUCUCAACUAUGACACGCAAAAUGCGUGCUCCGUUGAAUGGAGUUUACCAUG [C38U G83U C123U U148C] | -2.21
GGAUCUUCUCGAUCUAACAAAAAAGACAAAUCUGCCACAAAGCUUGAGAGCAACUUCCGAUGCAGAGGCGGCAGCCUUCGGUGGCGCGAUAGCGCUAACGUUCUCAACUAUGACACGCAAAACGCGUGCUCCGUGGAAUGGAGUUUAUCAUG [U53A G58C C96U U135G] | -3.98
GGAUCUUCUCGAUCUAACCAAAAAGACAAAUCUGCCACAAAGCUUGAGAGCAUCUUCGGAUCCAGAGGCGGAAGCCUUCGGUGGCGAGAUAGCGCCAACGUUCUCAACUAUGACACGCAAAACGCGUGCUUCGUAGAAUGGAGUUUAUCAUG [A19C G62C C72A C87A C131U U135A] | ≤ -4.2
GGAUCUUCUCGAUCUAACAAAAAAGACAAAUCUGACACAAAGCUUGAGAGCAUGUUCGGAUGCAGAGGCGGAAGACUUCGGUGCCGCGAUAGCGCCAACGUUCUCAACUAUGAUACGCAAAACGCGUGCUCCUUUGAGUGGAGUUUAUCAUG [C35A C54G C72A C75A G84C C114U G133U A138G] | ≤ -4.2
GGAUCUUCUCGAUCUAACAAAAAAGACAAAUCUGCCACAAAGCUUGAGAGCAUCUUCGGAUGCAGAGGCGGCAGCCUUCGGUGUCGCGAUAGCGCCAACGUUCUCAACUAUGACAUGCAAAACGCGUGCUCCGUUGAAUGCAGUUUAUCAUG [G84U C116U G141C] | -4.04
GGAUCUUCUCGGUCUAACAAAAAAGACAAAUCUGCCACAAAGCUUGAGAGCAUCUUCGGAUGCAGAGGCGGCAGCCUUCGGUGGCGCGAUAGCGUCAACGUUCUCAACUAUGACACGCAAAACGCGUGCUCCGUUGAAUGGAGUUUAUCAUG [A12G C95U] | 0.599
GGAUCUUCUCGAUCUAACAAAAAAGACAAAUCUGCCACAAAUCUCGAGAGCAUCUUCGGAUGCAGAGGCGGUAGCCUUCGGUGGGGCGAUAGCGCCAGCGUUCUCCACUAUGACACUCAAAACGCGUGCUCCGUUGAAUGGAGUUUAUCAUG [G42U U45C C72U C85G A98G A106C G117U] | ≤ -4.2
